# T1: IL-2Rβ/γ on M07e cells (human, UniProt P14784 27-551; P31785 23-369)
# T1 sequence (looked up) 1: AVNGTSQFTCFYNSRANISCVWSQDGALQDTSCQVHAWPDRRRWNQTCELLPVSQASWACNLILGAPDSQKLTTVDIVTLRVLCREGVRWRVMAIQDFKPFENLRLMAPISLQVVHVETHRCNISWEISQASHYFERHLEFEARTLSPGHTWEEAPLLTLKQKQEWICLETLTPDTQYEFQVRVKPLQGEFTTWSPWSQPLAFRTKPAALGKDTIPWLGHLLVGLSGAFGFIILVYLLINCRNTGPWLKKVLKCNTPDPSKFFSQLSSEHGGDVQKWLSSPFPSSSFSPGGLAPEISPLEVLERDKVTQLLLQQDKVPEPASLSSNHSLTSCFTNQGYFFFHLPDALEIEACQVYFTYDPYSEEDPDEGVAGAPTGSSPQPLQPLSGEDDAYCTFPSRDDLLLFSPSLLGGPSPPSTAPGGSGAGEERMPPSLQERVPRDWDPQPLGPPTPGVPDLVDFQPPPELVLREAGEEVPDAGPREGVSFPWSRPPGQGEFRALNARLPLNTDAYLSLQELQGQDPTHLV
# T1 sequence (looked up) 2: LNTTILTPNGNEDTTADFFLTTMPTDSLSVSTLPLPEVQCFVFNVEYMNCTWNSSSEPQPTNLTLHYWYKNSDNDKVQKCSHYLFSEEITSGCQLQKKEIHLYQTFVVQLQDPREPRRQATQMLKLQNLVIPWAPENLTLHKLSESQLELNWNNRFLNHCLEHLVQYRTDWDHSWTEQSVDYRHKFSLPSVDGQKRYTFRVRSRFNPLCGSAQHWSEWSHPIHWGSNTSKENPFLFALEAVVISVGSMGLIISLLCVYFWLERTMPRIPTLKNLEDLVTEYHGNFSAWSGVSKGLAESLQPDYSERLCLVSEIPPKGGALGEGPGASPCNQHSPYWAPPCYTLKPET
# B1: PEGylated IL-2 mutant (PEG-IL-2v) (ligand)
# chain: APASSSTKKTQLQLEHLLLDLQMILQGISNYKNPKLTRMLTAKFYMPKKATELKHLQCLEEELKPLEEVLQGAQSKNFHLRPRDLISNINVIVLELKGSETTFMCEYADETATIVEFLNRWITFAQSIISTLT
# modifications: PEGylated (site not stated)
# B2: PEG-IL-2v (conjugate)
# chain: APASSSTKKTQLQLEHLLLDLQMILQGISNYKNPKLTRMLTAKFYMPKKATELKHLQCLEEELKPLEEVLQGAQSKNFHLRPRDLISNINVIVLELKGSETTFMCEYADETATIVEFLNRWITFAQSIISTLT
# Tests used:
# IL-2Rβ/γ on M07e cells [1] = molecular target: T1, IL-2Rβ/γ on M07e cells; assay: cell-based or functional assay
# IL-2Rβ/γ on M07e cells [2] = molecular target: T1, IL-2Rβ/γ on M07e cells; assay: cell-based or functional assay; remark: listed apart in the source
# IL-2Rβ/γ on M07e cells [3] = molecular target: T1, IL-2Rβ/γ on M07e cells; assay: cell-based or functional assay; remark: listed apart in the source
# [4] = test system: unstimulated CD4^+ T cells; assay: Unstimulated T cell proliferation experiment (Ki-67, FACS); type: cell-based, human; conditions: 4 days
# Description: (§1) T cells stimulated with CD3 antibodies highly express PD-1. To determine whether the PD-1-IL-2v with different IL-2 mutants described above can activate T cells among human peripheral blood mononuclear cells (PBMCs) that lowly express PD-1 and highly express PD-1, T cells were isolated from PBMCs and stimulated with a CD3 antibody. The effects of the fusion proteins described above on the proliferation of unstimulated and stimulated T cells were assessed. Unstimulated T cell proliferation experiment: The isolated T cells were counted and then plated at 5 × 10^5 cells/mL onto a 96-well plate at 200 µL/well. The test samples were serially diluted with culture medium to prepare 5× working solutions, and 50 µL of each concentration of the test samples was added to the stimulated T cells and mixed well. The plate was incubated for 4 days. After the drug treatment, the cells were washed twice with FACS buffer, and dead cells were labeled with FVD780. After flow cytometry antibody staining, cell proliferation was examined by FACS.
# [5] = test system: unstimulated CD8^+ T cells; assay: as above; type: cell-based, human; conditions: 4 days
# Description: as §1
# [6] = test system: CD4^+ T cells stimulated with the CD3 antibody; assay: Proliferation experiment of T cells stimulated with a CD3 antibody (Ki-67, FACS); type: cell-based, human; conditions: 4 days
# Description: (§2) T cells stimulated with CD3 antibodies highly express PD-1. To determine whether the PD-1-IL-2v with different IL-2 mutants described above can activate T cells among human peripheral blood mononuclear cells (PBMCs) that lowly express PD-1 and highly express PD-1, T cells were isolated from PBMCs and stimulated with a CD3 antibody. The effects of the fusion proteins described above on the proliferation of unstimulated and stimulated T cells were assessed. Proliferation experiment of T cells stimulated with a CD3 antibody: After frozen human PBMCs were thawed, T cells were obtained by isolation using a Pan T Cell Isolation Kit (Miltenyi, 130-096-535). The CD3 antibody was diluted with PBS to 0.1 µg/mL and added to a 10 cm culture dish. The dish was coated at 37 °C for 2 h and washed with PBS for later use. The T cells were plated at 2 × 10^6 cells/mL onto the 10 cm culture dish precoated with the CD3 antibody and stimulated at 37 °C with 5% CO2 for 24 h. The stimulated T cells were collected, washed, and counted, and the cell density was adjusted to 5 × 10^5 cells/mL. The cells were plated at 200 µL/well onto a 96-well plate. The test samples were serially diluted with culture medium to prepare 5× working solutions, and 50 µL of each concentration of the test samples was added to the stimulated T cells and mixed well. The plate was incubated for 4 days. After the drug treatment, the cells were washed twice with FACS buffer (PBS + 2% FBS), and dead cells were labeled with Fixable Viability Dye (eBioscience, 65-0865-14). After flow cytometry antibody staining with CD3 (BD, 565491), CD4 (BD, 558116), CD8 (BD, 565310), Ki-67 (eBioscience, 12-5698-82)), cell proliferation was examined by FACS.
# [7] = test system: CD8^+ T cells stimulated with the CD3 antibody; assay: as above; type: cell-based, human; conditions: 4 days
# Description: as §2
molecule,measurement,setting,value
B1,"M07e proliferation, EC50",IL-2Rβ/γ on M07e cells [1],20.9 nM
same,"M07e proliferation, Maximal fluorescence value (Max Lum)",IL-2Rβ/γ on M07e cells [1],4.45e+06 Lum
same,"M07e-hPD1 proliferation, EC50",IL-2Rβ/γ on M07e cells [1],13.3 nM
same,"M07e-hPD1 proliferation, Maximal fluorescence value (Max Lum)",IL-2Rβ/γ on M07e cells [1],7.94e+06 Lum
same,M07e cell proliferation activity (%) at 0.46 nM,IL-2Rβ/γ on M07e cells [2],0.7%
same,M07e cell proliferation activity (%) at 1.4 nM,IL-2Rβ/γ on M07e cells [2],2.6%
same,M07e cell proliferation activity (%) at 4.1 nM,IL-2Rβ/γ on M07e cells [2],11.2%
same,M07e cell proliferation activity (%) at 12 nM,IL-2Rβ/γ on M07e cells [2],34.2%
same,M07e cell proliferation activity (%) at 37 nM,IL-2Rβ/γ on M07e cells [2],68.2%
same,M07e cell proliferation activity (%) at 111 nM,IL-2Rβ/γ on M07e cells [2],88.3%
same,M07e cell proliferation activity (%) at 333 nM,IL-2Rβ/γ on M07e cells [2],102%
same,M07e cell proliferation activity (%) at 1000 nM,IL-2Rβ/γ on M07e cells [2],89%
same,M07e-hPD-1 cell proliferation activity (%) at 0.0001 nM,IL-2Rβ/γ on M07e cells [2],1.9%
same,M07e-hPD-1 cell proliferation activity (%) at 0.001 nM,IL-2Rβ/γ on M07e cells [2],1.1%
same,M07e-hPD-1 cell proliferation activity (%) at 0.01 nM,IL-2Rβ/γ on M07e cells [2],0.5%
same,M07e-hPD-1 cell proliferation activity (%) at 0.1 nM,IL-2Rβ/γ on M07e cells [2],0.4%
same,M07e-hPD-1 cell proliferation activity (%) at 1 nM,IL-2Rβ/γ on M07e cells [2],3.3%
same,M07e-hPD-1 cell proliferation activity (%) at 10 nM,IL-2Rβ/γ on M07e cells [2],33.3%
same,M07e-hPD-1 cell proliferation activity (%) at 100 nM,IL-2Rβ/γ on M07e cells [2],104%
same,M07e-hPD-1 cell proliferation activity (%) at 1000 nM,IL-2Rβ/γ on M07e cells [2],100%
same,M07e-hPD-1 cell proliferation ratio (%) at 0.0001 nM,IL-2Rβ/γ on M07e cells [3],-2.2%
same,M07e-hPD-1 cell proliferation ratio (%) at 0.001 nM,IL-2Rβ/γ on M07e cells [3],-2.1%
same,M07e-hPD-1 cell proliferation ratio (%) at 0.01 nM,IL-2Rβ/γ on M07e cells [3],-2.6%
same,M07e-hPD-1 cell proliferation ratio (%) at 0.1 nM,IL-2Rβ/γ on M07e cells [3],-2.2%
same,M07e-hPD-1 cell proliferation ratio (%) at 1 nM,IL-2Rβ/γ on M07e cells [3],-0.6%
same,M07e-hPD-1 cell proliferation ratio (%) at 10 nM,IL-2Rβ/γ on M07e cells [3],24.4%
same,M07e-hPD-1 cell proliferation ratio (%) at 100 nM,IL-2Rβ/γ on M07e cells [3],76.7%
same,M07e-hPD-1 cell proliferation ratio (%) at 1000 nM,IL-2Rβ/γ on M07e cells [3],89.1%
B2,CD4^+ Ki67^+ cells (%),[4]; 0.001 nM,0.29%
same,CD4^+ Ki67^+ cells (%),[4]; 0.01 nM,1.51%
same,CD4^+ Ki67^+ cells (%),[4]; 0.1 nM,1.38%
same,CD4^+ Ki67^+ cells (%),[4]; 1 nM,1.77%
same,CD4^+ Ki67^+ cells (%),[4]; 10 nM,10.2%
same,CD4^+ Ki67^+ cells (%),[4]; 100 nM,45%
same,CD8^+ Ki67^+ cells (%),[5]; 0.001 nM,0.22%
same,CD8^+ Ki67^+ cells (%),[5]; 0.01 nM,0.59%
same,CD8^+ Ki67^+ cells (%),[5]; 0.1 nM,0.29%
same,CD8^+ Ki67^+ cells (%),[5]; 1 nM,1.54%
same,CD8^+ Ki67^+ cells (%),[5]; 10 nM,43%
same,CD8^+ Ki67^+ cells (%),[5]; 100 nM,87.3%
same,CD4^+ Ki67^+ cells (%),[6]; 0.001 nM,32.9%
same,CD4^+ Ki67^+ cells (%),[6]; 0.01 nM,34.8%
same,CD4^+ Ki67^+ cells (%),[6]; 0.1 nM,43.3%
same,CD4^+ Ki67^+ cells (%),[6]; 1 nM,63%
same,CD4^+ Ki67^+ cells (%),[6]; 10 nM,73%
same,CD4^+ Ki67^+ cells (%),[6]; 100 nM,74.7%
same,CD8^+ Ki67^+ cells (%),[7]; 0.001 nM,55.5%
same,CD8^+ Ki67^+ cells (%),[7]; 0.01 nM,55.5%
same,CD8^+ Ki67^+ cells (%),[7]; 0.1 nM,67.1%
same,CD8^+ Ki67^+ cells (%),[7]; 1 nM,76.6%
same,CD8^+ Ki67^+ cells (%),[7]; 10 nM,82%
same,CD8^+ Ki67^+ cells (%),[7]; 100 nM,82.5%

# From patent EP4477673A1, “IMMUNOCONJUGATE AND USE THEREOF” (priority 2022, dated 2023)
